Experimental data reported in patent publication US20020151497.

Legend:
[1] = target: T1, CD19, endogenous, immunoprecipitated from WEHI-231 cells (UniProt P25918)
T1 sequence: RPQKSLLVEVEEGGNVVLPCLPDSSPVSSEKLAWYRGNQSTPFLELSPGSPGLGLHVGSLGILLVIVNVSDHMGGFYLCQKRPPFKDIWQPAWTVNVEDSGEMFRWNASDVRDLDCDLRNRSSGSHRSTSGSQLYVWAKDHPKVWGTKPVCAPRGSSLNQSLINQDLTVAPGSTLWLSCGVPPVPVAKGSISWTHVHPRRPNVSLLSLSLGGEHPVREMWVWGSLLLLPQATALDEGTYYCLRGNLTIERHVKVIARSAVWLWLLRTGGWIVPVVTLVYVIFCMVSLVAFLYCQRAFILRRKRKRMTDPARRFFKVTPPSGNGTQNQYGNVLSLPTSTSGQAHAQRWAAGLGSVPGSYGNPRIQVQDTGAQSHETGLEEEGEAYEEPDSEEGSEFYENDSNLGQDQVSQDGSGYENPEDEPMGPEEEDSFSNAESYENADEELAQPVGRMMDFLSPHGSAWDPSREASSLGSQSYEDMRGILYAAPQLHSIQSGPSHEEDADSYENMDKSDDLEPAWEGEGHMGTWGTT

[2] = target: Lyn-kinase, endogenous, immunoprecipitated from WEHI-231 cells (UniProt P25911)
Chain of Lyn-kinase, endogenous, immunoprecipitated from WEHI-231 cells (P25911 whole entry, looked up): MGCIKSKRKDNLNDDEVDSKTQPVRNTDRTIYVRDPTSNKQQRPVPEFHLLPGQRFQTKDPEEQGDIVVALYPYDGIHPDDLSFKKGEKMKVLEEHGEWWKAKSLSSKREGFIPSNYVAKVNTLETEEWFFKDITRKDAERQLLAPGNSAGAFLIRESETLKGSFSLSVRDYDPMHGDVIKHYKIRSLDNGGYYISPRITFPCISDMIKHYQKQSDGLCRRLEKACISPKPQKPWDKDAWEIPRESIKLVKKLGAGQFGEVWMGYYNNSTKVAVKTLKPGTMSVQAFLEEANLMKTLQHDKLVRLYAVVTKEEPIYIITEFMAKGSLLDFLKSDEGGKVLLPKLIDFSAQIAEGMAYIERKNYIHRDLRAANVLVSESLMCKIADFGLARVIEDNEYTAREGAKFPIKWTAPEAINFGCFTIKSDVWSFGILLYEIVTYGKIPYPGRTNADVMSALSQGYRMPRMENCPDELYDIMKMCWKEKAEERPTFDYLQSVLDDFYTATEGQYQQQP

[3] = target: Syk, endogenous, from WEHI-231 cells (UniProt P48025)
Chain of Syk, endogenous, from WEHI-231 cells (P48025 whole entry, looked up): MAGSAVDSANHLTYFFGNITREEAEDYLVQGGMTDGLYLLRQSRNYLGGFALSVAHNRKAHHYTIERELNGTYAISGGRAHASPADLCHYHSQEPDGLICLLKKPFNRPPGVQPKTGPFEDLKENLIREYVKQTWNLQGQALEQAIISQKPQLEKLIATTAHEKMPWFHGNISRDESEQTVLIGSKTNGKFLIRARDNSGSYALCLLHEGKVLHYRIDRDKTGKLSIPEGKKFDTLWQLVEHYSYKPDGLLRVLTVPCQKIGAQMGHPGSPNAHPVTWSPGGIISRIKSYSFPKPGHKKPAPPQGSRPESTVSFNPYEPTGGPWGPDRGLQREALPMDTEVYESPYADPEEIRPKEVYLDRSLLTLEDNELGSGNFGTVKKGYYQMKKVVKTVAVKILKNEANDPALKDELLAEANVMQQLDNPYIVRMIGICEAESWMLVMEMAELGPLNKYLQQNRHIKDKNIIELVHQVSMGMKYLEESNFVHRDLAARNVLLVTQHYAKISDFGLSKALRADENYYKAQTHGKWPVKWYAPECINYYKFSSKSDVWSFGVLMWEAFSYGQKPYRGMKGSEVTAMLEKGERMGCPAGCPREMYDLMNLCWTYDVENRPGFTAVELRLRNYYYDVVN

## exogenous Lyn (5 units added to the kinase assay)
[1]
  phosphorylation level of immunoprecipitated CD19 (anti-phosphotyrosine Western blot) with exogenous Lyn and 0, 10, 50 and 100 µM K055H302: Lyn, CD19 and Syk all showed dose-dependent decreased phosphorylation in the presence of the compound of the invention
[2]
  phosphorylation level of immunoprecipitated Lyn (anti-phosphotyrosine Western blot) with exogenous Lyn and 0, 10, 50 and 100 µM K055H302: Lyn, CD19 and Syk all showed dose-dependent decreased phosphorylation in the presence of the compound of the invention
[3]
  phosphorylation level of immunoprecipitated Syk (anti-phosphotyrosine Western blot) with exogenous Lyn and 0, 10, 50 and 100 µM K055H302: Lyn, CD19 and Syk all showed dose-dependent decreased phosphorylation in the presence of the compound of the invention
